Data set [1] concerns HeLa Kyoto. Kind of data set: solubility in G1/S (NP-40 vs SDS abundance) (log2 ratio); higher = more soluble. To be noted: cell cycle stage: G1/S.
For data set [2], the system named is HeLa Kyoto. Kind of data set: solubility change mitosis vs G1/S (difference of NP-40 vs SDS log2 ratios) (log2 ratio difference); higher = more soluble in mitosis.
The subject of data set [3] is HeLa Kyoto. In words: melting temperature (median over replicates), in situ; higher = more thermally stable.
Data set [4] deals with HeLa Kyoto. Kind of data set: thermal stability score vs G1/S (z-score of summed log2 fold changes over temperatures); higher = more thermally stable than in G1/S.
[5] abbreviates: cell cycle stage: early G1 (4.5 h after nocodazole release).
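Wherever melting temperature (median over replicates), in situ is given: HeLa Kyoto cells synchronized by double thymidine or nocodazole block, proteins quantified by TMT10plex mass spectrometry, three independent biological replicates.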
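Wherever solubility change mitosis vs G1/S (difference of NP-40 vs SDS log2 ratios) is given: synchronized HeLa Kyoto cells (double thymidine block for G1/S, nocodazole release for mitosis), protein amounts in NP-40 versus SDS lysates quantified by mass spectrometry, three biological replicates.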
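Wherever solubility in G1/S (NP-40 vs SDS abundance) is given: HeLa Kyoto cells arrested at G1/S by double thymidine block, proteins quantified by TMT10plex mass spectrometry in mild NP-40 versus SDS extracts, three biological replicates.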
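Wherever thermal stability score vs G1/S (z-score of summed log2 fold changes over temperatures) is given: synchronized HeLa Kyoto cells, proteins quantified by TMT10plex mass spectrometry, three biological replicates, mitosis taken 0.5 h after nocodazole release, G1/S directly after double thymidine block.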

Take “MTEEACRTRSQKRALERDPTEDDVESKKIKMERGLLASDLNTDGDMRVTPEPGAGPTQGLLRATEATAMAMGRGEGLVGDGPVDMRTSHSDMKSERRPPSPDVIVLSDNEQPSSPRVNGLTTVALKETSTEALMKSSPEERERMIKQLKEELRLEEAKLVLLKKLRQSQIQKEATAQKPTGSVGSTVTTPPPLVRGTQNIPAGKPSLQTSSARMPGSVIPPPLVRGGQQASSKLGPQASSQVVMPPLVRGAQQIHSIRQHSSTGPPPLLLAPRASVPSVQIQGQRIIQQGLIRVANVPNTSLLVNIPQPTPASLKGTTATSAQANSTPTSVASVVTSAESPASRQAAAKLALRKQLEKTLLEIPPPKPPAPEMNFLPSAANNEFIYLVGLEEVVQNLLETQGRMSAATVLSREPYMCAQCKTDFTCRWREEKSGAIMCENCMTTNQKKALKVEHTSRLKAAFVKALQQEQEIEQRLLQQGTAPAQAKAEPTAAPHPVLKQVIKPRRKLAFRSGEARDWSNGAVLQASSQLSRGSATTPRGVLHTFSPSPKLQNSASATALVSRTGRHSERTVSAGKGSATSNWKKTPLSTGGTLAFVSPSLAVHKSSSAVDRQREYLLDMIPPRSIPQSATWK [GATAD2A]”: the “solubility in G1/S (log2)” value in the data set with HeLa Kyoto [1] is 0.481. Besides, in the data set with HeLa Kyoto [2], the “solubility change mitosis (log2)” value turned out to be 0.0452. For the same sequence, the melting temperature with HeLa Kyoto [3] (cell cycle stage: G1/S) was 47.3 °C; with HeLa Kyoto [3] (cell cycle stage: mitosis) it was 50.4 °C. Moreover, the thermal stability score amounted to 0.921 with HeLa Kyoto [4] (setting [5]) and 3.21 in the data set with HeLa Kyoto [4] (cell cycle stage: mitosis).
As for “MTELQQDVEDTKPAKVLGKRESKLGSAHSEAENGVEEKKKACRSPTAQSPTPSVEADSPDQKKIISLWSKSSFDGASLASDKNDCKTESKNDPKTERKKSSSSSQYKANMHFHKLFLSVPTEEPLKQSFTCALQKEILYQGKLFVSENWICFHSKVFGKDTKISIPAFSVTLIKKTKTALLVPNALIIATVTDRYIFVSLLSRDSTYKLLKSVCGHLENTSVGNSPNPSSAENSFRADRPSSLPLDFNDEFSDLDGVVQQRRQDMEGYSSSGSQTPESENSRDFHATESQTVLNVSKGEAKPTRADAHVNRVPEGKAKSLPVQGLSETVGILHKVKSQKCPMLHHILIFYAIVVCALIISTFYMRYRINTLEEQLGLLTSIVDTHNTEQAAPSGLRSQVQFNVEVLCQELTANIVKLEKIQNNLQKLLENGD [GRAMD3]”, the “solubility in G1/S (log2)” value with HeLa Kyoto [1] is 0.0879. Moreover, the “solubility change mitosis (log2)” value in the data set with HeLa Kyoto [2] was -0.244. The melting temperature in the data set on HeLa Kyoto [3] (cell cycle stage: G1/S) is 49.3 °C; in the data set with HeLa Kyoto [3] (cell cycle stage: mitosis), 51 °C. Moreover, the thermal stability score with HeLa Kyoto [4] (setting [5]) is -0.258; in the data set with HeLa Kyoto [4] (cell cycle stage: mitosis), 1.75.
As for “MTELQSALLLRRQLAELNKNPVEGFSAGLIDDNDLYRWEVLIIGPPDTLYEGGVFKAHLTFPKDYPLRPPKMKFITEIWHPNVDKNGDVCISILHEPGEDKYGYEKPEERWLPIHTVETIMISVISMLADPNGDSPANVDAAKEWREDRNGEFKRKVARCVRKSQETAFE [UBE2G1]”, in the data set on HeLa Kyoto [1], the “solubility in G1/S (log2)” value came to 0.543. The “solubility change mitosis (log2)” value with HeLa Kyoto [2] worked out at 0.0506. The melting temperature in the data set on HeLa Kyoto [3] (cell cycle stage: G1/S) came to 51.7 °C; in the data set on HeLa Kyoto [3] (cell cycle stage: mitosis) it was 53 °C. The thermal stability score in the data set with HeLa Kyoto [4] (setting [5]) was -0.274; with HeLa Kyoto [4] (cell cycle stage: mitosis), 0.392.
Take “MTEQAISFAKDFLAGGIAAAISKTAVAPIERVKLLLQVQHASKQIAADKQYKGIVDCIVRIPKEQGVLSFWRGNLANVIRYFPTQALNFAFKDKYKQIFLGGVDKHTQFWRYFAGNLASGGAAGATSLCFVYPLDFARTRLAADVGKSGTEREFRGLGDCLVKITKSDGIRGLYQGFSVSVQGIIIYRAAYFGVYDTAKGMLPDPKNTHIVVSWMIAQTVTAVAGVVSYPFDTVRRRMMMQSGRKGADIMYTGTVDCWRKIFRDEGGKAFFKGAWSNVLRGMGGAFVLVLYDELKKVI [SLC25A6]”: the “solubility in G1/S (log2)” value in the data set with HeLa Kyoto [1] is -0.157. The “solubility change mitosis (log2)” value in the data set with HeLa Kyoto [2] came out at 0.0142. Moreover, the melting temperature in the data set on HeLa Kyoto [3] (cell cycle stage: G1/S) is 57.1 °C; with HeLa Kyoto [3] (cell cycle stage: mitosis), 57.4 °C. Further, the thermal stability score is -0.865 in the data set on HeLa Kyoto [4] (setting [5]) and -3.48 in the data set with HeLa Kyoto [4] (cell cycle stage: mitosis).
In the case of “MTERRRDELSEEINNLREKVMKQSEENNNLQSQVQKLTEENTTLREQVEPTPEDEDDDIELRGAAAAAAPPPPIEEECPEDLPEKFDGNPDMLAPFMAQCQIFMEKSTRDFSVDRVRVCFVTSMMTGRAARWASAKLERSHYLMHNYPAFMMEMKHVFEDPQRREVAKRKIRRLRQGMGSVIDYSNAFQMIAQDLDWNEPALIDQYHEGLSDHIQEELSHLEVAKSLSALIGQCIHIERRLARAAAARKPRSPPRALVLPHIASHHQVDPTEPVGGARMRLTQEEKERRRKLNLCLYCGTGGHYADNCPAKASKSSPAGKLPGPAVEGPSATGPEIIRSPQDDASSPHLQVMLQIHLPGRHTLFVRAMIDSGASGNFIDHEYVAQNGIPLRIKDWPILVEAIDGRPIASGPVVHETHDLIVDLGDHREVLSFDVTQSPFFPVVLGVRWLSTHDPNITWSTRSIVFDSEYCRYHCRMYSPIPPSLPPPAPQPPLYYPVDGYRVYQPVRYYYVQNVYTPVDEHVYPDHRLVDPHIEMIPGAHSIPSGHVYSLSEPEMAALRDFVARNVKDGLITPTIAPNGAQVLQVKRGWKLQVSYDCRAPNNFTIQNQYPRLSIPNLEDQAHLATYTEFVPQIPGYQTYPTYAAYPTYPVGFAWYPVGRDGQGRSLYVPVMITWNPHWYRQPPVPQYPPPQPPPPPPPPPPPPSYSTL [PEG10]”, the “solubility in G1/S (log2)” value with HeLa Kyoto [1] was 0.144. Besides, in the data set on HeLa Kyoto [2], the “solubility change mitosis (log2)” value is -0.00752. For the same sequence, the melting temperature in the data set with HeLa Kyoto [3] (cell cycle stage: G1/S) was determined as 49.4 °C; in the data set with HeLa Kyoto [3] (cell cycle stage: mitosis) it was 49.8 °C. In addition, the thermal stability score in the data set with HeLa Kyoto [4] (setting [5]) was 0.275; with HeLa Kyoto [4] (cell cycle stage: mitosis), 0.54.
For “MTFQASHRSAWGKSRKKNWQYEGPTQKLFLKRNNVSAPDGPSDPSISVSSEQSGAQQPPALQVERIVDKRKNKKGKTEYLVRWKGYDSEDDTWEPEQHLVNCEEYIHDFNRRHTEKQKESTLTRTNRTSPNNARKQISRSTNSNFSKTSPKALVIGKDHESKNSQLFAASQKFRKNTAPSLSSRKNMDLAKSGIKILVPKSPVKSRTAVDGFQSESPEKLDPVEQGQEDTVAPEVAAEKPVGALLGPGAERARMGSRPRIHPLVPQVPGPVTAAMATGLAVNGKGTSPFMDALTANGTTNIQTSVTGVTASKRKFIDDRRDQPFDKRLRFSVRQTESAYRYRDIVVRKQDGFTHILLSTKSSENNSLNPEVMREVQSALSTAAADDSKLVLLSAVGSVFCCGLDFIYFIRRLTDDRKRESTKMAEAIRNFVNTFIQFKKPIIVAVNGPAIGLGASILPLCDVVWANEKAWFQTPYTTFGQSPDGCSTVMFPKIMGGASANEMLLSGRKLTAQEACGKGLVSQVFWPGTFTQEVMVRIKELASCNPVVLEESKALVRCNMKMELEQANERECEVLKKIWGSAQGMDSMLKYLQRKIDEF [CDYL]”, in the data set on HeLa Kyoto [1], the “solubility in G1/S (log2)” value is -0.609. Besides, the “solubility change mitosis (log2)” value in the data set with HeLa Kyoto [2] was 0.533. Also, the melting temperature in the data set with HeLa Kyoto [3] (cell cycle stage: G1/S) was 51.4 °C; in the data set on HeLa Kyoto [3] (cell cycle stage: mitosis), 51 °C. In addition, the thermal stability score with HeLa Kyoto [4] (setting [5]) is 2.51; in the data set with HeLa Kyoto [4] (cell cycle stage: mitosis), 0.875.
In the case of “MTHEEHHAAKTLGIGKAIAVLTSGGDAQGMNAAVRAVVRVGIFTGARVFFVHEGYQGLVDGGDHIKEATWESVSMMLQLGGTVIGSARCKDFREREGRLRAAYNLVKRGITNLCVIGGDGSLTGADTFRSEWSDLLSDLQKAGKITDEEATKSSYLNIVGLVGSIDNDFCGTDMTIGTDSALHRIMEIVDAITTTAQSHQRTFVLEVMGRHCGYLALVTSLSCGADWVFIPECPPDDDWEEHLCRRLSETRTRGSRLNIIIVAEGAIDKNGKPITSEDIKNLVVKRLGYDTRVTVLGHVQRGGTPSAFDRILGSRMGVEAVMALLEGTPDTPACVVSLSGNQAVRLPLMECVQVTKDVTKAMDEKKFDEALKLRGRSFMNNWEVYKLLAHVRPPVSKSGSHTVAVMNVGAPAAGMNAAVRSTVRIGLIQGNRVLVVHDGFEGLAKGQIEEAGWSYVGGWTGQGGSKLGTKRTLPKKSFEQISANITKFNIQGLVIIGGFEAYTGGLELMEGRKQFDELCIPFVVIPATVSNNVPGSDFSVGADTALNTICTTCDRIKQSAAGTKRRVFIIETMGGYCGYLATMAGLAAGADAAYIFEEPFTIRDLQANVEHLVQKMKTTVKRGLVLRNEKCNENYTTDFIFNLYSEEGKGIFDSRKNVLGHMQQGGSPTPFDRNFATKMGAKAMNWMSGKIKESYRNGRIFANTPDSGCVLGMRKRALVFQPVAELKDQTDFEHRIPKEQWWLKLRPILKILAKYEIDLDTSDHAHLEHITRKRSGEAAV [PFKM]”, the “solubility in G1/S (log2)” value in the data set on HeLa Kyoto [1] was determined as 0.0079. Further, the “solubility change mitosis (log2)” value in the data set on HeLa Kyoto [2] was -0.181. Besides, the melting temperature stood at 59.6 °C with HeLa Kyoto [3] (cell cycle stage: G1/S) and 59.7 °C with HeLa Kyoto [3] (cell cycle stage: mitosis). Further, the thermal stability score in the data set with HeLa Kyoto [4] (setting [5]) was -1.59; in the data set on HeLa Kyoto [4] (cell cycle stage: mitosis) it was -1.13.
Consider “MTIHQFLLLFLFWVCLPHFCSPEIMFRRTPVPQQRILSSRVPRSDGKILHRQKRGWMWNQFFLLEEYTGSDYQYVGKLHSDQDKGDGSLKYILSGDGAGTLFIIDEKTGDIHATRRIDREEKAFYTLRAQAINRRTLRPVEPESEFVIKIHDINDNEPTFPEEIYTASVPEMSVVGTSVVQVTATDADDPSYGNSARVIYSILQGQPYFSVEPETGIIRTALPNMNRENREQYQVVIQAKDMGGQMGGLSGTTTVNITLTDVNDNPPRFPQNTIHLRVLESSPVGTAIGSVKATDADTGKNAEVEYRIIDGDGTDMFDIVTEKDTQEGIITVKKPLDYESRRLYTLKVEAENTHVDPRFYYLGPFKDTTIVKISIEDVDEPPVFSRSSYLFEVHEDIEVGTIIGTVMARDPDSISSPIRFSLDRHTDLDRIFNIHSGNGSLYTSKPLDRELSQWHNLTVIAAEINNPKETTRVAVFVRILDVNDNAPQFAVFYDTFVCENARPGQLIQTISAVDKDDPLGGQKFFFSLAAVNPNFTVQDNEDNTARILTRKNGFNRHEISTYLLPVVISDNDYPIQSSTGTLTIRVCACDSQGNMQSCSAEALLLPAGLSTGALIAILLCIIILLVIVVLFAALKRQRKKEPLILSKEDIRDNIVSYNDEGGGEEDTQAFDIGTLRNPAAIEEKKLRRDIIPETLFIPRRTPTAPDNTDVRDFINERLKEHDLDPTAPPYDSLATYAYEGNDSIAESLSSLESGTTEGDQNYDYLREWGPRFNKLAEMYGGGESDKDS [CDH10]”, for which the “solubility in G1/S (log2)” value in the data set on HeLa Kyoto [1] stood at 0.0681. In addition, the “solubility change mitosis (log2)” value with HeLa Kyoto [2] was -0.163. The melting temperature is 55.5 °C with HeLa Kyoto [3] (cell cycle stage: G1/S) and 52.5 °C with HeLa Kyoto [3] (cell cycle stage: mitosis). In addition, the thermal stability score is -0.401 in the data set with HeLa Kyoto [4] (setting [5]) and -1.3 in the data set on HeLa Kyoto [4] (cell cycle stage: mitosis).
